Laboratory results from patent US20160145657A1, “Methods and Materials for Producing 7-Carbon Chemicals via a C9 Route” (INVISTA North America S.á.r.l., priority 2014, published 2016).
Values belong to the molecule of their own block, whether it stands above or below them.

Assays:
[1] = carboxylate reductase activity, N7-acetyl-7-aminoheptanoate to N7-acetyl-7-aminoheptanal, NADPH consumption at 340 nm; type: biochemical; settings: purified enzyme enhanced by sfp gene product, 2 mM N7-acetyl-7-aminoheptanoate, pH 7.5, room temperature, 20 min; FIG. 10
Description: The activity of each of the N-terminal His-tagged carboxylate reductases of SEQ ID NOs: 3, 5, and 6 (see Examples 2 and 3, and FIG. 6) for converting N7-acetyl-7-aminoheptanoate to N7-acetyl-7-aminoheptanal was assayed in triplicate in a buffer composed of a final concentration of 50 mM HEPES buffer (pH=7.5), 2 mM N7-acetyl-7-aminoheptanoate, 10 mM MgCl2, 1 mM ATP, and 1 mM NADPH. The assays were initiated by adding purified carboxylate reductase and phosphopantetheine transferase or the empty vector control to the assay buffer containing the N7-acetyl-7-aminoheptanoate then incubated at room temperature for 20 min. The consumption of NADPH was monitored by absorbance at 340 nm.

[2] = carboxylate reductase activity, pimelate to pimelate semialdehyde, NADPH consumption at 340 nm; type: biochemical; settings: purified enzyme enhanced by sfp gene product, 2 mM pimelate, pH 7.5, room temperature, 20 min; FIG. 8
Description: A nucleotide sequence encoding a HIS-tag was added to the nucleic acid sequences from Segniliparus rugosus and Segniliparus rotundus that encode the carboxylate reductases of SEQ ID NOs: 4 (EFV11917.1) and 6 (ADG98140.1), respectively (see FIG. 6), such that N-terminal HIS tagged carboxylate reductases could be produced. Each of the modified genes was cloned into a pET Duet expression vector along with a sfp gene encoding a HIS-tagged phosphopantetheine transferase from Bacillus subtilis, both under the T7 promoter. Each expression vector was transformed into a BL21[DE3] E. coli host and the resulting recombinant E. coli strains were cultivated at 37° C. in a 250 mL shake flask culture containing 50 mL LB media and antibiotic selection pressure, with shaking at 230 rpm. Each culture was induced overnight at 37° C. using an auto-induction media.
The pellet from each induced shake flask culture was harvested via centrifugation. Each pellet was resuspended and lysed via sonication, and the cell debris was separated from the supernatant via centrifugation. […]
Enzyme activity assays (i.e., from pimelate to pimelate semialdehyde) were performed in triplicate in a buffer composed of a final concentration of 50 mM HEPES buffer (pH=7.5), 2 mM pimelate, 10 mM MgCl2, 1 mM ATP and 1 mM NADPH. […] The consumption of NADPH was monitored by absorbance at 340 nm. […]

[3] = ω-transaminase activity, reverse direction (7-aminoheptanoate to pimelate semialdehyde), L-alanine formation by RP-HPLC; type: biochemical; settings: cell free extract, 10 mM 7-aminoheptanoate, 10 mM pyruvate, pH 7.5, 25° C., 4 h; FIG. 13
Description: (§1) A nucleotide sequence encoding an N-terminal His-tag was added to the nucleic acid sequences from Chromobacterium violaceum, Pseudomonas syringae, Rhodobacter sphaeroides, and Vibrio fluvialis encoding the ω-transaminases of SEQ ID NOs: 7, 9, 10 and 12, respectively (see FIG. 6) such that N-terminal HIS tagged ω-transaminases could be produced. Each of the resulting modified genes was cloned into a pET21a expression vector under control of the T7 promoter and each expression vector was transformed into a BL21[DE3] E. coli host. The resulting recombinant E. coli strains were cultivated at 37° C. in a 250 mL shake flask culture containing 50 mL LB media and antibiotic selection pressure, with shaking at 230 rpm. Each culture was induced overnight at 16° C. using 1 mM IPTG.
(§2) The pellet from each induced shake flask culture was harvested via centrifugation. Each pellet was resuspended and lysed via sonication. The cell debris was separated from the supernatant via centrifugation and the cell free extract was used immediately in enzyme activity assays.
Enzyme activity assays in the reverse direction (i.e., 7-aminoheptanoate to pimelate semialdehyde) were performed in a buffer composed of a final concentration of 50 mM HEPES buffer (pH=7.5), 10 mM 7-aminoheptanoate, 10 mM pyruvate and 100 μM pyridoxyl 5′ phosphate. Each enzyme activity assay reaction was initiated by adding cell free extract of the ω-transaminase gene product or the empty vector control to the assay buffer containing the 7-aminoheptanoate and incubated at 25° C. for 4 h, with shaking at 250 rpm. The formation of L-alanine from pyruvate was quantified via RP-HPLC.

[4] = literature reports; cited from earlier work
[5] = ω-transaminase activity, forward direction (pimelate semialdehyde to 7-aminoheptanoate), pyruvate formation by RP-HPLC; type: biochemical; settings: conclusion from reverse and forward assays of Example 1
Description: as §1, §2
Enzyme activity in the forward direction (i.e., pimelate semialdehyde to 7-aminoheptanoate) was confirmed for the transaminases of SEQ ID NO 9, SEQ ID NO 10 and SEQ ID NO 12. Enzyme activity assays were performed in a buffer composed of a final concentration of 50 mM HEPES buffer (pH=7.5), 10 mM pimelate semialdehyde, 10 mM L-alanine and 100 μM pyridoxyl 5′ phosphate. Each enzyme activity assay reaction was initiated by adding a cell free extract of the ω-transaminase gene product or the empty vector control to the assay buffer containing the pimelate semialdehyde and incubated at 25° C. for 4 h, with shaking at 250 rpm. The formation of pyruvate was quantified via RP-HPLC.

[6] = ω-transaminase activity, 7-aminoheptanol to 7-oxoheptanol, L-alanine formation by RP-HPLC; type: biochemical
Description: A nucleotide sequence encoding an N-terminal His-tag was added to the Chromobacterium violaceum, Pseudomonas syringae and Rhodobacter sphaeroides nucleic acids encoding the ω-transaminases of SEQ ID NOs: 7, 9 and 10, respectively (see FIG. 6) such that N-terminal HIS tagged ω-transaminases could be produced. The modified genes were cloned into a pET21a expression vector under the T7 promoter. Each expression vector was transformed into a BL21[DE3] E. coli host. Each resulting recombinant E. coli strain were cultivated at 37° C. in a 250 mL shake flask culture containing 50 mL LB media and antibiotic selection pressure, with shaking at 230 rpm. Each culture was induced overnight at 16° C. using 1 mM IPTG.
as §2
Enzyme activity assays in the reverse direction (i.e., 7-aminoheptanol to 7-oxoheptanol) were performed in a buffer composed of a final concentration of 50 mM HEPES buffer (pH=7.5), 10 mM 7-aminoheptanol, 10 mM pyruvate, and 100 μM pyridoxyl 5′ phosphate. Each enzyme activity assay reaction was initiated by adding cell free extract of the ω-transaminase gene product or the empty vector control to the assay buffer containing the 7-aminoheptanol and then incubated at 25° C. for 4 h, with shaking at 250 rpm. The formation of L-alanine was quantified via RP-HPLC.

B1: SEQ ID NO 5: Mycobacterium abscessus subsp. bolletii (Mycobacterium massiliense) carboxylate reductase, Genbank Accession No. EIV11143.1 (protein)
chain: MTNETNPQQEQLSRRIESLRESDPQFRAAQPDPAVAEQVLRPGLHLSEAIAALMTGYAERPALGERARELVIDQDGRTTLRLLPRFDTTTYGELWSRTTSVAAAWHHDATHPVKAGDLVATLGFTSIDYTVLDLAIMILGGVAVPLQTSAPASQWTTILAEAEPNTLAVSIELIGAAMESVRATPSIKQVVVFDYTPEVDDQREAFEAASTQLAGTGIALETLDAVIARGAALPAAPLYAPSAGDDPLALLIYTSGSTGAPKGAMHSENIVRRWWIREDVMAGTENLPMIGLNFMPMSHIMGRGTLTSTLSTGGTGYFAASSDMSTLFEDMELIRPTALALVPRVCDMVFQRFQTEVDRRLASGDTASAEAVAAEVKADIRDNLFGGRVSAVMVGSAPLSEELGEFIESCFELNLTDGYGSTEAGMVFRDGIVQRPPVIDYKLVDVPELGYFSTDKPHPRGELLLKTDGMFLGYYKRPEVTASVFDADGFYMTGDIVAELAHDNIEIIDRRNNVLKLSQGEFVAVATLEAEYANSPVVHQIYVYGSSERSYLLAVVVPTPEAVAAAKGDAAALKTTIADSLQDIAKEIQLQSYEVPRDFIIEPQPFTQGNGLLTGIAKLARPNLKAHYGPRLEQMYAEIAEQQAAELRALHGVDPDKPALETVLKAAQALLGVSSAELAADAHFTDLGGDSLSALSFSDLLRDIFAVEVPVGVIVSAANDLGGVAKFVDEQRHSGGTRPTAETVHGAGHTEIRAADLTLDKFIDEATLHAAPSLPKAAGIPHTVLLTGSNGYLGHYLALEWLERLDKTDGKLIVIVRGKNAEAAYGRLEEAFDTGDTELLAHFRSLADKHLEVLAGDIGDPNLGLDADTWQRLADTVDVIVHPAALVNHVLPYNQLFGPNVVGTAEIIKLAITTKIKPVTYLSTVAVAAYVDPTTFDEESDIRLISAVRPIDDGYANGYGNAKWAGEVLLREAHDLCGLPVAVFRSDMILAHSRYTGQLNVPDQFTRLILSLIATGIAPGSFYQAQTTGERPLAHYDGLPGDFTAEAITTLGTQVPEGSEGFVTYDCVNPHADGISLDNFVDWLIEAGYPIARIDNYTEWFTRFDTAIRGLSEKQKQHSLLPLLHAFEQPSAAENHGVVPAKRFQHAVQAAGIGPVGQDGTTDIPHLSRRLIVKYAKDLEQLGLL
- acceptance of N7-acetyl-7-aminoheptanoate as substrate (NADPH consumption) against the empty vector control [1]: accepted N7-acetyl-7-aminoheptanoate as substrate

- acceptance of pimelate as substrate (NADPH consumption) against the empty vector control [2]: accepted pimelate as substrate
B2: SEQ ID NO: 4: Segniliparus rugosus carboxylate reductase, Genbank Accession No. EFV11917.1 (protein)
chain: MGDGEERAKRFFQRIGELSATDPQFAAAAPDPAVVEAVSDPSLSFTRYLDTLMRGYAERPALAHRVGAGYETISYGELWARVGAIAAAWQADGLAPGDFVATVGFTSPDYVAVDLAAARSGLVSVPLQAGASLAQLVGILEETEPKVLAASASSLEGAVACALAAPSVQRLVVFDLRGPDASESAADERRGALADAEEQLARAGRAVVVETLADLAARGEALPEAPLFEPAEGEDPLALLIYTSGSTGAPKGAMYSQRLVSQLWGRTPVVPGMPNISLHYMPLSHSYGRAVLAGALSAGGTAHFTANSDLSTLFEDIALARPTFLALVPRVCEMLFQESQRGQDVAELRERVLGGRLLVAVCGSAPLSPEMRAFMEEVLGFPLLDGYGSTEALGVMRNGIIQRPPVIDYKLVDVPELGYRTTDKPYPRGELCIRSTSLISGYYKRPEITAEVFDAQGYYKTGDVMAEIAPDHLVYVDRSKNVLKLSQGEFVAVAKLEAAYGTSPYVKQIFVYGNSERSFLLAVVVPNAEVLGARDQEEAKPLIAASLQKIAKEAGLQSYEVPRDFLIETEPFTTQNGLLSEVGKLLRPKLKARYGEALEARYDEIAHGQADELRALRDGAGQRPVVETVVRAAVAISGSEGAEVGPEANFADLGGDSLSALSLANLLHDVFEVEVPVRIIIGPTASLAGIAKHIEAERAGASAPTAASVHGAGATRIRASELTLEKFLPEDLLAAAKGLPAADQVRTVLLTGANGWLGRFLALEQLERLARSGQDGGKLICLVRGKDAAAARRRIEETLGTDPALAARFAELAEGRLEVVPGDVGEPKFGLDDAAWDRLAEEVDVIVHPAALVNHVLPYHQLFGPNVVGTAEIIRLAITAKRKPVTYLSTVAVAAGVEPSSFEEDGDIRAVVPERPLGDGYANGYGNSKWAGEVLLREAHELVGLPVAVFRSDMILAHTRYTGQLNVPDQFTRLVLSLLATGIAPKSFYQQGAAGERQRAHYDGIPVDFTAEAITTLGAEPSWFDGGAGFRSFDVFNPHHDGVGLDEFVDWLIEAGHPISRIDDHKEWFARFETAVRGLPEAQRQHSLLPLLRAYSFPHPPVDGSVYPTGKFQGAVKAAQVGSDHDVPHLGKALIVKYADDLKALGLL

B3: SEQ ID NO 7: Chromobacterium violaceum ω-transaminase, Genbank Accession No. AAQ59697.1 (protein)
chain: MQKQRTTSQWRELDAAHHLHPFTDTASLNQAGARVMTRGEGVYLWDSEGNKIIDGMAGLWCVNVGYGRKDFAEAARRQMEELPFYNTFFKTTHPAVVELSSLLAEVTPAGFDRVFYTNSGSESVDTMIRMVRRYWDVQGKPEKKTLIGRWNGYHGSTIGGASLGGMKYMHEQGDLPIPGMAHIEQPWWYKHGKDMTPDEFGVVAARWLEEKILEIGADKVAAFVGEPIQGAGGVIVPPATYWPEIERICRKYDVLLVADEVICGFGRTGEWFGHQHFGFQPDLFTAAKGLSSGYLPIGAVFVGKRVAEGLIAGGDFNHGFTYSGHPVCAAVAHANVAALRDEGIVQRVKDDIGPYMQKRWRETFSRFEHVDDVRGVGMVQAFTLVKNKAKRELFPDFGEIGTLCRDIFFRNNLIMRACGDHIVSAPPLVMTRAEVDEMLAVAERCLEEFEQTLKARGLA
- acceptance of 7-aminoheptanoate as substrate (conversion of pyruvate to L-alanine) against the empty vector control [3]: accepted 7-aminoheptanote as substrate
- activity with 7-aminoheptanoate / 7-aminoheptanoic acid (to pimelate semialdehyde) [4]: demonstrated analogous activity accepting 7-aminoheptanoic acid as amino donor
- reversibility of ω-transaminase activity: pimelate semialdehyde accepted, 7-aminoheptanoate synthesized [5]: accepted pimelate semialdehyde as substrate and synthesized 7-aminoheptanoate as a reaction product
- acceptance of 7-aminoheptanol as substrate (conversion of pyruvate to L-alanine) against the empty vector control ([6]; cell free extract, 10 mM 7-aminoheptanol, 10 mM pyruvate, pH 7.5, 25° C., 4 h, FIG. 17): accepted 7-aminoheptanol as substrate
- acceptance of 7-oxoheptanol as substrate forming 7-aminoheptanol, concluded from reversibility ([6]; inferred from reverse direction assay and Example 1): accept 7-oxoheptanol as substrate and form 7-aminoheptanol
